Reference: patent US12466859B2, “Desmoglein 2 (DSG2) binding proteins and uses therefor” (UNIVERSITY OF WASHINGTON THROUGH ITS CENTER FOR …, priority 2013, dated 2025)
Substitutions are numbered along the chain they refer to. In names and notes the source's numbering stands.

B1: F265L (protein)
chain: MKVSALKEKVSALKEKVSALKEKVSALKEKVSALKEGSGGGSGGGSGGGSNSIALKNNTLWTGPKPEANCIIEYGKQNPDSKLTLILVKNGGIVNGYVTLMGASDYVNTLFKNKNVSINVELYFDATGHILPDSSSLKTDLELKYKQTADFSARGFMPSTTAYPFVLPNAGTHNENYIFGQCYYKASDGALLPLEVTVMLNKRLPDSRTSYVMTFLWSLNAGLAPETTQATLITSPFTFSYIREDD
B2: N186D (protein)
chain: B1 chain with N113D, L192F
B3: E299V (protein)
chain: B1 chain with L192F, E226V
B4: V239D (protein)
chain: B1 chain with V166D, L192F
B5: K217E+F224S (protein)
chain: B1 chain with K144E, F151S, L192F

Key:
soluble recombinant DSG2 = biological target: T1, soluble recombinant DSG2 (Homo sapiens, UniProt Q14126); experiment: Western blot of dimeric Ad3 fiber knob mutants with soluble recombinant DSG2 as probe; type: binding; details: dimerized knob mutants compared to JO-1
T1 construct: Western blot using soluble recombinant DSG2 as a probe; purchased Leinco Technologies, Inc. (St. Louis, MO)
T1 sequence (Q14126 50-609 limits assumed): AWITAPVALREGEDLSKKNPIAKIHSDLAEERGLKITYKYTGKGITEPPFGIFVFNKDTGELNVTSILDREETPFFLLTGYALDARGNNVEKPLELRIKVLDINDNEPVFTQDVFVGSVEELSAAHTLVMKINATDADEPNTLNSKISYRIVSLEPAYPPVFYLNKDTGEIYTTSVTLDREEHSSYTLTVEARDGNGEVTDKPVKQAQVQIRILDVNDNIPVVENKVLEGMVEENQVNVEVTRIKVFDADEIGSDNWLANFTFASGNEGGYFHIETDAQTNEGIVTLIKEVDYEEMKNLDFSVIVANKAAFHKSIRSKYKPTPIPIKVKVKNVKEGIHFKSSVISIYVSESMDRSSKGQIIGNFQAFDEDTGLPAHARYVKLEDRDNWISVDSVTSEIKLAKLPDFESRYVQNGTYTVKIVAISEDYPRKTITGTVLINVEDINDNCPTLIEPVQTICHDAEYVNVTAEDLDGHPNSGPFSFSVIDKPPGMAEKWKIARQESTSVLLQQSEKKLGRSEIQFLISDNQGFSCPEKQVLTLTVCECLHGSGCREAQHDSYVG
From the text: FIG. 1A-1F. Residues found to be critically involved in binding to DSG2. FIG. 1A) Shown are the amino acid sequences of the Ad3 and Ad14p1 fiber knob. Beta sheets present in the Ad3 knob (PDB accession number 1H7Z_A) and Ad14 knob (PDB: 3F0Y_A) are indicated by lines. Black arrows indicate residues within the Ad3 fiber knob which, when mutated individually, ablate or reduce binding to DSG2. […] FIG. 1B) Schematic structure of dimeric Ad3 fiber knob mutants. The fiber knob domain and one shaft motif was fused through a flexible linker to a homodimerizing K-coil domain (41). The proteins are self-dimerizing and can be purified by His-Ni-NTA affinity chromatography. FIG. 1C-FIG. 1F) Analysis of binding of dimeric Ad3 fiber knob mutants to soluble DSG2. FIG. 1C and FIG. 1D) Coomassie staining. 10 μg of purified Ad3 fiber knob (unboiled) were loaded per lane. Trimeric forms of the fiber knobs are indicated by an arrow. The gel contained SDS and the loading buffer containing DTT, which caused the disassembly of dimers of trimeric fiber knobs as previously reported (41). FIG. 1E and FIG. 1F): Western blot using soluble recombinant DSG2 as a probe, followed by anti-DSG2-mAb and anti-mouse IgG-HRP. For comparison, JO-1 (0.5 μg/lane) is shown. The Western blots were scanned and signals were quantified.
Western Blot: Mini-PROTEAN precast gels (BIO-RAD, Hercules, CA) with 4-15% gradient polyacrylamide were used. A total of 1 μg protein mixed with 2× loading buffer (10 mM Tris-HCl, pH6.8, 200 mM DTT, 4% SDS, 20% glycerol, 0.2% bromophenol blue) was loaded per lane. Samples were either boiled (B) for 5 min or loaded unboiled (UB). The following running buffer was used: 25 mM Tris, pH8.3, 0.192 M glycine, 0.1% SDS. After electrophoresis, proteins were transferred to nitrocellulose and incubated with recombinant human DSG2 protein and anti-DSG2 antibodies as described previously (42). The Western blots were scanned and quantified using the ImageJ 1.32 software (National Institutes of Health, Bethesda, MD). JO-1 band intensity was set as 100%. […]

Ad3-GFP virus = experiment: Competition of Ad3-GFP virus infection on HeLa cells; type: cell-based, adenovirus serotype 3; details: pre-incubation with knob; GFP expression
Procedure: FIG. 3A-3D. Competition of Ad3 virus by dimerized Ad3 knob mutants. FIG. 3A) Relative attachment of ^3H-labeled Ad3 virus in the presence of dimeric fiber knob mutants. 1.8×10^5 HeLa cells were incubated with Ad3 knob mutants at a concentration of 2.5 and 100 μg/ml on ice for 1 hour. Then 400 pfu/cell of ^3H-Ad3 virus was added on ice for another hour. Unbound virus particles were washed away. Attachment of virus particles incubated with PBS was taken as 100%. N=3. FIG. 3B1-3B2) Competition of Ad3-GFP virus infection on HeLa cells. 1.5×10^5 HeLa cells were seeded into 24 well plates. Cells were incubated with the Ad3 knob mutants at increasing concentrations for one hour at room temperature. 100 pfu/cell of Ad3-GFP virus were then added and GFP expression was analyzed 18 hours later by flow cytometry. FIG. 3B1) percentage of GFP positive cells. FIG. 3B2) mean fluorescence intensity. N=3. The standard deviation was less than 10%. FIG. 3C) Relative attachment of ^3H-labeled Ad3 virus in the presence of dimeric fiber knob mutants with multiple mutations. The study was performed as described in […]) The standard deviation was less than 10%. FIG. 3D) Competition of Ad3-GFP virus infection on HeLa cells. The study was performed as described in FIG. 3C) The standard deviation was less than 10%.
FIG. 9A1-9C. Analysis of dimeric Ad3 fiber knob mutants with increased affinity to DSG2. FIG. 9A1-9A2) Competition of Ad3-GFP virus infection on HeLa cells with dimeric affinity-enhanced mutant Y250F and JO-1 (dimeric wt Ad3 fiber knob). The experimental setting is as described for FIG. 3C. FIG. 9A1) percentage of GFP positive cells. FIG. 9A2) mean fluorescence intensity. N=3. The standard deviation was less than 10%. […] 100 pfu/cell of Ad3GFP virus were then added and GFP expression was analyzed 18 hours later. […]
Functional validation. […] Transduction was measured based on GFP expression (FIG. 3B). […] Dimeric Ad3 knob mutants with combined mutations were also analyzed for their ability to compete with Ad3 virus for attachment (FIG. 3C) and infection (FIG. 3D).

A549 xenograft tumors = experiment: Enhancement of irinotecan therapy in A549 xenograft tumors; type: in vivo, CB17-SCID/beige mice; details: 2 mg/kg i.v. one hour before irinotecan 37.5 mg/kg i.v.; tumor volume
Procedure: (§1) FIG. 5A-5B. Correlation of reduced DSG2 binding with the ability to open epithelial junctions. FIG. 5A) Transepithelial electrical resistance (TEER) measured on polarized colon cancer T84 cells. Cells were cultured in transwell chambers until the TEER was constant, i.e. tight junctions had formed. A total of 5 μg of dimeric Ad3 fiber knobs in PBS was then added for 1 hour to the apical chamber. TEER was measured at the indicated time points. N=6. For time points 1.5 and 4 hours the difference between JO-1 vs D261N and N186D was significant (p<0.01). The arrows indicate the addition and removal of Ad3 fiber knobs. FIG. 5B) Enhancement of irinotecan therapy. A total of 4×10^6 A549 cells were injected subcutaneously into CB17-SCID/beige mice. Once the tumor reached a volume of ˜100 mm^3 (day 15 after implantation), the mice were injected intravenously with 2 mg/kg JO-1, E299V, N186D, or PBS, followed by an intravenous injection of irinotecan (37.5 mg/kg) one hour later. The treatment was repeated on day 25. N=5. […] The difference between “irinotecan” vs “JO-1+irinotecan” was significant (p<0.01) from day 20 on.
FIG. 10A-10C. Combination of affinity-enhanced JO-1 versions with chemotherapy. FIG. 10A) Enhancement of irinotecan (I) therapy. The experimental setting was the same as in FIG. 5B. […] N=5. […] Mammary fat pad tumors were established from primary ovarian cancer ovc316 cells. Treatment was started when tumors reached a volume of 100 mm^3. Mice were injected intravenously with 2 mg/kg JO-1 or with 0.5 mg/kg JO-4, followed by an intravenous injection of PEGylated liposomal doxorubicin (PLD) (1 mg/kg) one hour later. Treatment was repeated weekly. […] A total of 4×10^6 TNBC MDA-MB-231 cells were injected into the mammary fat pad of CB17 SCID-beige mice. JO-4 (2 mg/kg) was intravenously injected 1 hour before the application of cetuximab (C) (10 mg/kg, i.p.) and nab-paclitaxel (nab-P) (5 mg/kg, i.v.). Treatment was given weekly. N=10 P<0.01 at day 25 for nab-P+C vs JO-4+nab-P+C.
A549, MDA-MB-231, and ovc316 xenograft tumors were established by injection of the corresponding tumor cells into the mammary fat pad (1:1 with Matrigel) of CB17 mice. TC1-DSG2 tumors were established by subcutaneous injection of TC1-DSG2 cells into DSG2 transgenic mice. JO-0, JO-1, JO-2, or JO-4 were intravenously injected one hour before the application of chemotherapeutic drugs: Irinotecan/Camptosar™ (Pfizer Inc., Groton, CT), PEGylated liposomal doxorubicin/Lipodox™ (Sun Pharmaceuticals IN, India), cetuximab/Erbitux™ (ImClone, Somerville, NJ), nanoparticle albumin conjugated paclitaxel/Abraxane” (Abraxis Biosciences, Summit, NJ). Tumor volumes were measured three times a week. Each treatment group consisted of a minimum of 5 mice.

[1] = system: polarized colon cancer T84 cells; experiment: Transepithelial electrical resistance (TEER) on polarized T84 cells; type: cell-based; details: for Effect on the TEER: added for 1 hour to the apical side of transwell cultures; for TEER compared to JO-1: dimeric affinity-enhanced mutants, TEER at 4 hours
Procedure: as §1
FIG. 9A1-9C. Analysis of dimeric Ad3 fiber knob mutants with increased affinity to DSG2. FIG. 9A1-9A2) Competition of Ad3-GFP virus infection on HeLa cells with dimeric affinity-enhanced mutant Y250F and JO-1 (dimeric wt Ad3 fiber knob). The experimental setting is as described for FIG. 3C. FIG. 9A1) percentage of GFP positive cells. FIG. 9A2) mean fluorescence intensity. N=3. The standard deviation was less than 10%. FIG. 9B1-9B2) Competition of Ad3-GFP virus infection on HeLa cells by Ad3 knob mutants with enhanced DSG2 binding but without dimerization domain. 1.5×10^5 HeLa cells were seeded into 24 well plates. Cells were incubated with the Ad3 knob mutants at the increasing concentrations for one hour at room temperature. 100 pfu/cell of Ad3GFP virus were then added and GFP expression was analyzed 18 hours later. FIG. 9B1) % of GFP+cells; FIG. 9B2) MFI. FIG. 9C) TEER on colon cancer T84 cells. The experimental setting was the same as for FIG. 5A. The TEER at 4 hours is shown. N=3.
Permeability assay. A total of 5×10^5 T84 cells were seeded in 12 mm transwell inserts (PET membrane, with 0.4 μm pore size (Corning, NY) and cultured for >14 days until transepithelial electrical resistance (TEER) was stable. Culture medium was changed every 2-3 days. The cells were exposed to DSG2 ligands (20 μg/ml) in adhesion medium (DMEM, 1% FBS, 2 mM MgCl2, 20 mM HEPES) for 15 min at room temperature and TEER was measured and calculated as described elsewhere (39).

Row | Molecule | Enhancement of irinotecan therapy (A549 xenograft tumors) | Effect on the TEER [1] | TEER compared to JO-1 [1] | other results
1 | B1 | – | – | – | DSG2 binding in Western blot, in words (soluble recombinant DSG2): almost completely ablated; Inhibition of Ad3-GFP infection of HeLa cells, in words (Ad3-GFP virus): least reduced
2 | B2 | not significant | intermediate effects | – | –
3 | B3 | not significant | intermediate effects | – | –
4 | B4 | – | – | significantly higher | –
5 | B5 | – | – | significantly higher | –
